Patent publication US20230167182A1 (BIOSION, published 2023)

T1: recombinant human IL6R-his (human, UniProt P08887 20-365)
T1 construct: In house made; the entry includes the C-terminal His tag; also called human IL6R-his protein
T1 sequence: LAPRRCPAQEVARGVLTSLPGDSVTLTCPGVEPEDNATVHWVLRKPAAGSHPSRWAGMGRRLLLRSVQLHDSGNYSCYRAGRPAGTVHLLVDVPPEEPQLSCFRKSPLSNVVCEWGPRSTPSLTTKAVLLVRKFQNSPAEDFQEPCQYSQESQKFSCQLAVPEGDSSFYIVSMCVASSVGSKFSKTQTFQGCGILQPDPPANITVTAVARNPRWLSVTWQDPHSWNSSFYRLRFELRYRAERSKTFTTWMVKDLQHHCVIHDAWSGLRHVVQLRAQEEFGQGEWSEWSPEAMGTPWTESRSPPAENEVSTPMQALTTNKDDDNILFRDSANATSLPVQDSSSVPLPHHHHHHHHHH

T2: macaca IL6R-his protein (macaca mulatta)
T2 chain: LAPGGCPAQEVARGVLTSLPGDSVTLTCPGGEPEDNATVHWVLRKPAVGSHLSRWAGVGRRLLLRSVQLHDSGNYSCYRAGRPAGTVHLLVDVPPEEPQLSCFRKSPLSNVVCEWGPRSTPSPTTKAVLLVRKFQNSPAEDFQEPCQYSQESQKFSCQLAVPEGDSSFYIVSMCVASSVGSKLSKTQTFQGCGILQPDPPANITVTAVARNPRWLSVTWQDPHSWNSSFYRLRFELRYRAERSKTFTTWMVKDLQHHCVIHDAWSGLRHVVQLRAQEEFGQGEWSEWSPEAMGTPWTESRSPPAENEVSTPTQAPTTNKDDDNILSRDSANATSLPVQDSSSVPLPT


Legend:
[1] = target: T1, recombinant human IL6R-his; test: SPR Biacore; antibody at 10 ug/ml captured by anti-human IgG on CM5, human IL6R in flow
Experimental: (§1) Un-reacted moieties on the biosensor surface were blocked with ethanolamine. […] Then, serially diluted recombinant human IL6R-his (in house made, amino acid sequence set forth in SEQ ID NO: 44) or macaca IL6R-his protein (in house made, amino acid sequence set forth in SEQ ID NO: 45), starting at 100 nM with a 2-fold serial dilution in HBS-EP⁺ buffer (provided by Biacore), was flowed onto the chip at a flow rate of 30 μL/min. The antigen-antibody association kinetics was followed for 2 minutes and the dissociation kinetics was followed for 10 minutes. The association and dissociation curves were fit to a 1:1 Langmuir binding model using BIAcore evaluation software.
(§2) Cell supernatants containing humanized antibodies were harvested after six days in shaking flasks and directly subjected to BIAcore test following the protocol described above with modifications.

[2] = target: T1, recombinant human IL6R-his; test: SPR Biacore; antibody captured by anti-human IgG on CM5, human IL6R-his at 100 nM
Experimental: as §1
The recombinant human IL6R-his (amino acid sequence set forth in SEQ ID NO: 44) at the concentration of 100 nM instead of serially diluted recombinant human IL6R-his, was flowed onto the chip at a flow rate of 30 μL/min.

macaca IL6R-his protein = target: T2, macaca IL6R-his protein; test: SPR Biacore T200; antibody captured on Protein G chip, antigen in flow, 1:1 fit
Experimental: as §1

[3] = target: T1, recombinant human IL6R-his; test: as above
Experimental: as §1

human IL6R-Fc protein [4] = target: T3, human IL6R-Fc protein (human, biotin-labeled in the ELISAs (sites not given)); test: ligand blocking ELISA: antibody pre-incubated with biotin-labeled human IL6R-Fc, added to plate-coated human IL6 (blocked ligand: human IL6)
T3 construct: In house made; also called biotin-labeled human IL6R-Fc protein

human IL6R-Fc protein [5] = target: T3, human IL6R-Fc protein; test: benchmark blocking ELISA: antibody pre-incubated with biotin-labeled human IL6R-Fc, added to plate-coated Tocilizumab (competitor: Tocilizumab)
human IL6R-Fc protein [6] = target: T3, human IL6R-Fc protein; test: capture ELISA: antibody captured on anti-IgG F(ab')2 coated plate, then biotin-labeled human IL6R-Fc, streptavidin-HRP
Experimental: For the capture ELISA, 96-well micro plates were coated with 2 μg/ml AffiniPure Goat Anti-Mouse IgG, F(ab′)₂ fragment specific (Jackson ImmunoResearch Laboratories, Inc., Cat #115-005-072) in PBS, 100 μl/well, and incubated for 2 hours at 37° C. Plates were washed once with wash buffer (PBS+0.05% v/v Tween-20, PBST) and then blocked with 200 μl/well blocking buffer (5% w/v non-fatty milk in PBST) overnight at 4° C. […] Plates containing captured anti-IL6R antibodies were incubated with biotin-labeled human IL6R-Fc protein (prepared in house, SEQ ID NO: 43, 39.5 ng/ml in 2.5% w/v non-fatty milk in PBST, 100 μl/well) for 40 minutes at 37° C., washed 4 times, and incubated with streptavidin conjugated HRP (1:10000 dilution in PBST, Jackson ImmunoResearch Laboratories, Inc., Cat #016-030-084, 100 μl/well) for 40 minutes at 37° C. After a final wash, plates were incubated with 100 μl/well ELISA substrate TMB (InnoReagents, Cat #TMB-S-002). The reaction was stopped 3-10 minutes later at room temperature with 50 μl/well 1M H₂SO₄, and the absorbance of each well was read on a microplate reader using dual wavelength mode at 450 nm for TMB and 630 nm as the reference wavelength. Then the OD (450-630) values were plotted against antibody concentration. Data was analyzed using Graphpad Prism software and EC₅₀ values were reported.
For the capture ELISA, AffiniPure Goat Anti-Human IgG, F(ab′)₂ fragment specific (Jackson Immuno Research, Cat #109-005-097) was used instead of AffiniPure Goat Anti-Mouse IgG, F(ab′)₂ fragment specific, 100 μl/well.

[7] = target: T1, recombinant human IL6R-his; test: SPR Biacore; antibody from diluted cell supernatant captured by anti-human IgG on CM5, human IL6R in flow
Experimental: as §1, §2

Binder	Kd [1] [pM]	Kd [2] [pM]	IC50 (human IL6R-Fc protein [4]) [pM]	IC50 (human IL6R-Fc protein [5]) [pM]	EC50 (human IL6R-Fc protein [6]) [pM]	further results
Tocilizumab (antibody, human IgG1, kappa, V domains shown, In house made; also called benchmark; Actemra) VH: QVQLQESGPGLVRPSQTLSLTCTVSGYSITSDHAWSWVRQPPGRGLEWIGYISYSGITTYNPSLKSRVTMLRDTSKNQFSLRLSSVTAADTAVYYCARSLARTTAMDYWGQGSLVTVSS VL: DIQMTQSPSSLSASVGDRVTITCRASQDISSYLNWYQQKPGKAPKLLIYYTSRLHSGVPSRFSGSGSGTDFTFTISSLQPEDIATYYCQQGNTLPYTFGQGTKVEIKR	3810	3260	616	770	180	Kd (macaca IL6R-his protein): 3800 pM; Kd [3]: 3260 pM
Chimeric 1H7 (antibody, human IgG1, kappa, V domains shown, Mouse variable regions on human IgG1 / human kappa constant regions; also called chimeric antibody 1H7) VH: QVQLQQPGTELVKPGASVKLSCKASGYTFTNYWMHWVKQRPGQGLDWIGEINPTNGRTNYNENFKSKATLTVDKSSSTAYMQLSSLTSEDSAVYYCARLNTHYVFDSWGQGTTLTLSS VL: EIVLTQSPTTLAASPGEKITFTCSVSSSISSNYLHWYQQKPGFSPKLLISRTSTLASGVPARFSGSGSGTSYSLTIGTMEAEDVATYYCQQGSGIPFTFGSGTKLELKR	604	400				koff [1]: 0.000123 s⁻¹; kon [1]: 204000 M⁻¹ s⁻¹; koff [2]: 5.21e-05 s⁻¹; kon [2]: 130000 M⁻¹ s⁻¹
humanized antibody hu1H7-V5 (antibody, human IgG1, kappa, V domains shown, Human IgG1 / kappa) VH: QVQLVQSGAEVKKPGASVKVSCKASGYTFTNYWMHWVRQAPGQGLEWIGEINPTNGRTNYNENFKSRVTLTVDTSTSTVYMELSSLRSEDTAVYYCARLNTHYVFDSWGQGTLVTVSS VL: EIVLTQSPGTLSLSPGERATLSCSVSSSISSNYLHWYQQKPGLSPRLLISRTSTLASGIPARFSGSGSGTEYTLTISRMQSEDFAVYYCQQGSGIPFTFGQGTKLEIKR						Kd [7]: 526 pM; koff [7]: 0.000195 s⁻¹; kon [7]: 370000 M⁻¹ s⁻¹
mouse anti-IL6R monoclonal antibody 1H9 (antibody, V domains shown, Mouse hybridoma mAb) VH: QVQLQQPGAELVKPGASVKLSCKASGYTFTSYWMHWVKLRPGQGLEWIGEINPTNGRTNYYEKFKNRATLTADKSSSTAYMQLSSLTFEDSAVYFCAKFHYSRWYFDVWGTGTTVTVSS VL: DIVMTQSQKFMSTSVGDRVSITCKASQNVGTAVVWYQQKPGQSPKLLINPASNRYTGVPDRFTGSGSGTDFTLTISNMQSEDLADYFCQQYSSYPLTFGAGTKLELK			274	394	83.4	
